Consider one molecule from patent publication US20190077858A1 (KM BIOLOGICS, published 2019).

In test [1] the target is T1, human IL-18 (MBL Medical & Biological Laboratories, Co., Ltd.) (human, UniProt Q14116 37-193, biotinylated (Biotin-PEAC5-maleimide or Biotin-AC5 Sulfo-OSu) in the streptavidin plate ELISAs and the panning; not labelled in the receptor binding and KG-1 assays).
T1 construct: Bought protein; also called human interleukin-18; biotinylated human IL-18
T1 sequence (looked up): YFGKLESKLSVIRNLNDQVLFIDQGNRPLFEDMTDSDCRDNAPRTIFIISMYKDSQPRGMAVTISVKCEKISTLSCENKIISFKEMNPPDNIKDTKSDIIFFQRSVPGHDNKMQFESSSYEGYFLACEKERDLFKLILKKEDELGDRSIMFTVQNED
Kind of test: ELISA, biotinylated human IL-18 on streptavidin plate, HRP detection antibody, O.D. 450nm/650nm. On the procedure: The binding activity of the obtained scFv phages, scFv, and IgG prepared by a standard method (conventional method) was evaluated by ELISA. The biotinylated human IL-18 or the biotinylated mouse IL-18 was diluted to 1 μg/mL with PBS (Sigma-Aldrich Corp.), added at 100 μL/well to Streptavidin plates (Nunc), and incubated at room temperature for 2 hours to immobilize the IL-18. After the immobilization, the plates were washed with PBST, and each obtained scFv phage, scFv, or IgG was added at 100 μL/well to the plates and incubated at 37° C. After 1 hour, the plates were washed with PBST, and a detection antibody anti-M13/HRP (GE Healthcare Japan Corp.), anti-His tag/HRP (Bethyl Laboratories, Inc.), anti-V5 tag/HRP (Bethyl Laboratories, Inc.), anti-mouse IgG/HRP (Invitrogen Corp.), or anti-hFc/HRP (Cosmo Bio Co., Ltd., The binding site) was added at 100 μL/well to the plates and incubated at 37° C. After 1 hour, the plates were washed with PBST, and TMB (Sigma-Aldrich Corp.) was added at 100 μL/well to the plates to develop color. After 30 minutes, the reaction was terminated with 2 N sulfuric acid, and the color values (O.D. 450 nm/650 nm) were measured using a microplate reader (Molecular Devices, Inc.).
In general terms: An ELISA detects its analyte on a solid surface through an enzyme-linked reagent.

Test [2] addresses T1, human IL-18 (MBL Medical & Biological …). Kind of test: blocking ELISA: human IL-18 with IL-18Rα-hFc-His and the antibody added to plate-bound IL-18Rβ-hFc, anti-His tag/HRP; blocked partner: IL-18 receptor. As to the method:
IL-18Rβ-hFc (R&D Systems, Inc.) was added at 100 μL/well at a concentration of 1 μg/mL to Covalink plates (Nunc) and incubated at room temperature for 1 hour and then incubated overnight at 4° C. On the next day, the plates were washed with PBS (phosphate buffered saline) and blocked with 1% BSA (bovine serum albumin)-PBS. Human IL-18 (MBL Medical & Biological Laboratories, Co., Ltd.) was prepared at a concentration of 0.5 μg/mL with 1% BSA-PBS, and IL-18Rα-hFc-His (R&D Systems, Inc.) was prepared at a concentration of 2 μg/mL with 1% BSA-PBS. Both of the solutions were mixed (50 μL each). The obtained anti-IL-18 antibody was further added to the IL-18/IL-18Rα-hFc-His mixed solution. This mixed solution was added to the IL-18Rβ-hFc-immobilized Covalink plates and incubated at 37° C. for 1 hour. After 1 hour, the plates were washed with PBST (phosphate buffered saline-Tween 20), and a detection antibody anti-His tag/HRP (Bethyl Laboratories, Inc.) was added at 100 μL/well to the plates and incubated at 37° C. After 1 hour, the plates were washed with PBST, and TMB (Sigma-Aldrich Corp.) was added at 100 μL/well to the plates to develop color. After 30 minutes, the reaction was terminated with 2 N sulfuric acid, and the color values (O.D. 450 nm/650 nm) were measured using a microplate reader (Molecular Devices, Inc.).

B1: IgG molecule-type 4A6D (antibody, V domains shown)
VH: EVQLVESGGGLVQPGGSMRLSCTASGFTFDEYAMSWVRQAPGKGLEWVSGISTGGGGTYYADSVEGRFTISRDNSKNTLYLQMNSLRAEDTAVYYCAKPWLSGSRSGDFWGQGTLVTVSS
VL: QSALTQPASVSGSPGQSITISCTGTSSDVGGYNYVSWYQQHPGKAPKLLIYEVSHRPSGVSDRFSGSKSGNTASLTISGLQAEDEADYYCSSFTSSSSLYVFGTGTKLTVL
notes: detected with anti-hFc, so human constant regions; also called human anti-human IL-18 antibody 4A6D
Turning to B1, the EC50 (read off the curve) – broadly, the midpoint of the concentration-response curve – in test [1] was ~0.02 µg/mL. Also, the “IC50 (read off the curve)” value in test [2] is ~0.3 µg/mL.
